PMC12416549 (2024)
Residue numbers refer to the chain shown, from its start. Numbers in names are those of the source.

B1: V55A (designed binder)
chain: MTLQELLREEALRRAEAEAFRYALELLAEKFPEQKEYLLDLAEEIESQIRSLSGADVEDVRKFLDKEWAWVKELLAEHPAELAEVEAARAARLAELRAEVEAKVAA
B2: L39G (designed binder)
chain: B1 chain with L39G, A55V
B3: L38D (designed binder)
chain: B1 chain with L38D, A55V
B4: A11Y (designed binder)
chain: B1 chain with A11Y, A55V
B5: E86N (designed binder)
chain: B1 chain with A55V, E86N
B6: M1M (designed binder)
chain: B1 chain with A55V
B7: I49L (designed binder)
chain: B1 chain with I49L, A55V
B8: Y22C (designed binder)
chain: B1 chain with Y22C, A55V
B9: L3K (designed binder)
chain: B1 chain with L3K, A55V
B10: F20P (designed binder)
chain: B1 chain with F20P, A55V
B11: L7P (designed binder)
chain: B1 chain with L7P, A55V
B12: A42E (designed binder)
chain: B1 chain with A42E, A55V
B13: L27P (designed binder)
chain: B1 chain with L27P, A55V
B14: A91S (designed binder)
chain: B1 chain with A55V, A91S
B15: E44Y (designed binder)
chain: B1 chain with E44Y, A55V
B16: E67S (designed binder)
chain: B1 chain with A55V, E67S
B17: L12H (designed binder)
chain: B1 chain with L12H, A55V
B18: E86I (designed binder)
chain: B1 chain with A55V, E86I
B19: W68N (designed binder)
chain: B1 chain with A55V, W68N
B20: L93C (designed binder)
chain: B1 chain with A55V, L93C
B21: K66F (designed binder)
chain: B1 chain with A55V, K66F
B22: A90E (designed binder)
chain: B1 chain with A55V, A90E
B23: T2P (designed binder)
chain: B1 chain with T2P, A55V
B24: F63C (designed binder)
chain: B1 chain with A55V, F63C
B25: L64Q (designed binder)
chain: B1 chain with A55V, L64Q
B26: L26P (designed binder)
chain: B1 chain with L26P, A55V
B27: L7V (designed binder)
chain: B1 chain with L7V, A55V
B28: F31P (designed binder)
chain: B1 chain with F31P, A55V
B29: W68Y (designed binder)
chain: B1 chain with A55V, W68Y
B30: E18T (designed binder)
chain: B1 chain with E18T, A55V
B31: K66N (designed binder)
chain: B1 chain with A55V, K66N
B32: V100E (designed binder)
chain: B1 chain with A55V, V100E
B33: A19V (designed binder)
chain: B1 chain with A19V, A55V
B34: Q34Y (designed binder)
chain: B1 chain with Q34Y, A55V
B35: R13A (designed binder)
chain: B1 chain with R13A, A55V
B36: E16T (designed binder)
chain: B1 chain with E16T, A55V
B37: A94R (designed binder)
chain: B1 chain with A55V, A94R
B38: E46Q (designed binder)
chain: B1 chain with E46Q, A55V
B39: E10Q (designed binder)
chain: B1 chain with E10Q, A55V
B40: R92V (designed binder)
chain: B1 chain with A55V, R92V
B41: A23I (designed binder)
chain: B1 chain with A23I, A55V
B42: D59I (designed binder)
chain: B1 chain with A55V, D59I
B43: E10T (designed binder)
chain: B1 chain with E10T, A55V
B44: Q4D (designed binder)
chain: B1 chain with Q4D, A55V
B45: E44I (designed binder)
chain: B1 chain with E44I, A55V
B46: L6T (designed binder)
chain: B1 chain with L6T, A55V
B47: E46N (designed binder)
chain: B1 chain with E46N, A55V
B48: D56F (designed binder)
chain: B1 chain with A55V, D56F
B49: A69R (designed binder)
chain: B1 chain with A55V, A69R
B50: L52V (designed binder)
chain: B1 chain with L52V, A55V
B51: R89Y (designed binder)
chain: B1 chain with A55V, R89Y
B52: A91G (designed binder)
chain: B1 chain with A55V, A91G
B53: T2W (designed binder)
chain: B1 chain with T2W, A55V
B54: E25Q (designed binder)
chain: B1 chain with E25Q, A55V
B55: S51Q (designed binder)
chain: B1 chain with S51Q, A55V
B56: Q34F (designed binder)
chain: B1 chain with Q34F, A55V
B57: Q4E (designed binder)
chain: B1 chain with Q4E, A55V
B58: Q4Y (designed binder)
chain: B1 chain with Q4Y, A55V
B59: R14H (designed binder)
chain: B1 chain with R14H, A55V

Biological target: T1, TNFR1 (Homo sapiens, UniProt P19438)
T1 chain: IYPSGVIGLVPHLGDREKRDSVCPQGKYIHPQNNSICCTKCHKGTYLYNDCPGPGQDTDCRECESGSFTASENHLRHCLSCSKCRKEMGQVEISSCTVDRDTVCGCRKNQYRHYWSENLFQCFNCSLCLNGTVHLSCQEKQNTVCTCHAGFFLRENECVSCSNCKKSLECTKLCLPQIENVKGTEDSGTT
Assay: yeast display SC50

Binder | apparent Kd (screen) [nM]
B1 | 1.16
B2 | 3
B3 | 11.4
B4 | 0.49
B5 | 1.05
B6 | 0.49
B7 | 0.539
B8 | 0.446
B9 | 2.48
B10 | 7.07
B11 | 0.79
B12 | 0.956
B13 | 7.78
B14 | 0.79
B15 | 7.78
B16 | 6.43
B17 | 0.956
B18 | 0.718
B19 | 12.5
B20 | 0.653

Binder | apparent Kd (screen) [nM]
B21 | 0.653
B22 | 0.49
B23 | 0.718
B24 | 6.43
B25 | 0.79
B26 | 13.8
B27 | 2.25
B28 | 7.78
B29 | 0.49
B30 | 0.593
B31 | 0.653
B32 | 0.539
B33 | 0.446
B34 | 0.539
B35 | 0.368
B36 | 0.539
B37 | 0.869
B38 | 0.49
B39 | 13.8
B40 | 0.593

Binder | apparent Kd (screen) [nM]
B41 | 0.653
B42 | 0.653
B43 | 5.31
B44 | 0.539
B45 | 0.869
B46 | 10.4
B47 | 0.593
B48 | 2.73
B49 | 0.539
B50 | 0.49
B51 | 0.539
B52 | 0.49
B53 | 1.16
B54 | 0.539
B55 | 1.27
B56 | 0.79
B57 | 0.79
B58 | 0.49
B59 | 0.49
